{"source": "patent US10562947B2", "about": "“Compositions and methods for preventing or treating diseases, conditions or processes characterized by aberrant fibroblast proliferation and extracellular matrix deposition” (MOERAE MATRIX, INC., priority 2011, dated 2020)", "assay_in_all_cases": "Kinase Profiling Assay", "assay_type_in_all_cases": "biochemical", "settings_in_all_cases": "100 μM peptide", "key": {"BTK(h)": {"target": "BTK(h) (Homo sapiens, UniProt Q06187)", "sequence (Q06187 whole entry)": "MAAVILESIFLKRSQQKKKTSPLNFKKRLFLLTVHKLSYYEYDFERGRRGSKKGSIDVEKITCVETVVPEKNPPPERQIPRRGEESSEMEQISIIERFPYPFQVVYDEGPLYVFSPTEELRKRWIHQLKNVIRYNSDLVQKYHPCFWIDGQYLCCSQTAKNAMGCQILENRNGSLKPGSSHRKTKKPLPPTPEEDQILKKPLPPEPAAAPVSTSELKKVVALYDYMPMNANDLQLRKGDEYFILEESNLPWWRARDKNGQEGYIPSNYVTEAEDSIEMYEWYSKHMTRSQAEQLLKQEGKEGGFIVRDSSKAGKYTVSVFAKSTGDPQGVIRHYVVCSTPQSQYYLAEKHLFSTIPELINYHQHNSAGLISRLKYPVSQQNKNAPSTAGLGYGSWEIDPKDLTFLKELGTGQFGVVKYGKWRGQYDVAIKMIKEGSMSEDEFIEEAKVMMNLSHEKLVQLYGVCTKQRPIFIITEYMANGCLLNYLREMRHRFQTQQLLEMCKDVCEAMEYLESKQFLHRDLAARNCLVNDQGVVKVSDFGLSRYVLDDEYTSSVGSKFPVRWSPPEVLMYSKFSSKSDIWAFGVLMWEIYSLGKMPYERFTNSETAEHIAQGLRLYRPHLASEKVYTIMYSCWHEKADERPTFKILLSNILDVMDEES", "summary_of_the_method": "(§1)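 Each kinase in a 266-member human panel is assayed, in duplicate, for activity in the presence of MK2 inhibitory peptides to gauge specificity.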"}, "Bmx(h)": {"target": "T1, Bmx(h) (Homo sapiens, UniProt P51813)", "T1 sequence (P51813 1-675)": "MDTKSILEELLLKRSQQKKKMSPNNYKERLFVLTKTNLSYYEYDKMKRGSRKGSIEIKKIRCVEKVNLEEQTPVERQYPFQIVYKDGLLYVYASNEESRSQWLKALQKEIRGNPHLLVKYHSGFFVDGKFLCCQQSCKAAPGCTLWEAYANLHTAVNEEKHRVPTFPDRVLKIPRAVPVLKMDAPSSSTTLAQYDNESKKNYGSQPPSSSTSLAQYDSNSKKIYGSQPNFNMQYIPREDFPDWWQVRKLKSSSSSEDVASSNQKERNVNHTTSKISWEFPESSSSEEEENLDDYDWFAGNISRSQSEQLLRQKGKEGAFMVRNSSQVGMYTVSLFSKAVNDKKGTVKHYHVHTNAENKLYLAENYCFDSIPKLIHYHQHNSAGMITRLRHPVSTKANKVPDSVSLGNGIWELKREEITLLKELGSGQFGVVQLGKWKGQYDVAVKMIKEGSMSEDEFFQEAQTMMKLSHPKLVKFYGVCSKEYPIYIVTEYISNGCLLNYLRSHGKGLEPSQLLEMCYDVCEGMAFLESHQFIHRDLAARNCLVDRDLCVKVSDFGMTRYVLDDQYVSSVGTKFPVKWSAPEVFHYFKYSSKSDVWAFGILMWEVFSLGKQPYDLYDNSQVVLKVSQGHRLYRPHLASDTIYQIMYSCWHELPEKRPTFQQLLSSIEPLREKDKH", "summary_of_the_method": "as §1"}, "CDK9/cyclin T1(h)": {"target": "CDK9/cyclin T1(h) (Homo sapiens, UniProt P50750)", "summary_of_the_method": "as §1"}, "CLK3(h)": {"target": "CLK3(h) (Homo sapiens, UniProt P49761)", "sequence (P49761 whole entry)": "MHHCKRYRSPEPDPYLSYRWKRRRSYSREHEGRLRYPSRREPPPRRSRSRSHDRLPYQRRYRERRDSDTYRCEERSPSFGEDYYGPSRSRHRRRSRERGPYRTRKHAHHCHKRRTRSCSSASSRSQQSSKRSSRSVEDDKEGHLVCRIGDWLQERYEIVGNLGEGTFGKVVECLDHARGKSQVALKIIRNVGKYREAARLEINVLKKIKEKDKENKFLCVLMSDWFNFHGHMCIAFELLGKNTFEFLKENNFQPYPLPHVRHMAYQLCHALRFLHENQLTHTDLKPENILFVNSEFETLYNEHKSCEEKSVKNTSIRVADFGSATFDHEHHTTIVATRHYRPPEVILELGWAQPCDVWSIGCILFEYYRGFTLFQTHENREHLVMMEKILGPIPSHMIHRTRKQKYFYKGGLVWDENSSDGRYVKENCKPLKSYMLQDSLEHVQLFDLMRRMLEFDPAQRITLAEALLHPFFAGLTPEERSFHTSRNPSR", "summary_of_the_method": "as §1"}, "CaMKIIδ(h)": {"target": "CaMKIIδ(h) (Homo sapiens, UniProt Q13557)", "sequence (Q13557 whole entry)": "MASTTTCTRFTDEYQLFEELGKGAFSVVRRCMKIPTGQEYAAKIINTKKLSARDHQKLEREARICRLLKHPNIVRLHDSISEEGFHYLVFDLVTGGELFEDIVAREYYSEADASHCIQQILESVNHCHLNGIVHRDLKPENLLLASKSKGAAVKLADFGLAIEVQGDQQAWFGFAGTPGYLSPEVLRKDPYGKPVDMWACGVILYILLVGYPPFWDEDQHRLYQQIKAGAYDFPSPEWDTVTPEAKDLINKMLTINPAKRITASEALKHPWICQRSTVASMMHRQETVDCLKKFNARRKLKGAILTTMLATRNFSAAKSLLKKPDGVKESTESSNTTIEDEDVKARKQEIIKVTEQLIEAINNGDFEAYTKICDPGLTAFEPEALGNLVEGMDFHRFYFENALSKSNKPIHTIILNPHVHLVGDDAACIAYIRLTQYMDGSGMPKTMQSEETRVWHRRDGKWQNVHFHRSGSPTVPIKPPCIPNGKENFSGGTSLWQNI", "summary_of_the_method": "as §1"}, "EphA7(h)": {"target": "EphA7(h) (Homo sapiens, UniProt Q15375)", "sequence (Q15375 28-998)": "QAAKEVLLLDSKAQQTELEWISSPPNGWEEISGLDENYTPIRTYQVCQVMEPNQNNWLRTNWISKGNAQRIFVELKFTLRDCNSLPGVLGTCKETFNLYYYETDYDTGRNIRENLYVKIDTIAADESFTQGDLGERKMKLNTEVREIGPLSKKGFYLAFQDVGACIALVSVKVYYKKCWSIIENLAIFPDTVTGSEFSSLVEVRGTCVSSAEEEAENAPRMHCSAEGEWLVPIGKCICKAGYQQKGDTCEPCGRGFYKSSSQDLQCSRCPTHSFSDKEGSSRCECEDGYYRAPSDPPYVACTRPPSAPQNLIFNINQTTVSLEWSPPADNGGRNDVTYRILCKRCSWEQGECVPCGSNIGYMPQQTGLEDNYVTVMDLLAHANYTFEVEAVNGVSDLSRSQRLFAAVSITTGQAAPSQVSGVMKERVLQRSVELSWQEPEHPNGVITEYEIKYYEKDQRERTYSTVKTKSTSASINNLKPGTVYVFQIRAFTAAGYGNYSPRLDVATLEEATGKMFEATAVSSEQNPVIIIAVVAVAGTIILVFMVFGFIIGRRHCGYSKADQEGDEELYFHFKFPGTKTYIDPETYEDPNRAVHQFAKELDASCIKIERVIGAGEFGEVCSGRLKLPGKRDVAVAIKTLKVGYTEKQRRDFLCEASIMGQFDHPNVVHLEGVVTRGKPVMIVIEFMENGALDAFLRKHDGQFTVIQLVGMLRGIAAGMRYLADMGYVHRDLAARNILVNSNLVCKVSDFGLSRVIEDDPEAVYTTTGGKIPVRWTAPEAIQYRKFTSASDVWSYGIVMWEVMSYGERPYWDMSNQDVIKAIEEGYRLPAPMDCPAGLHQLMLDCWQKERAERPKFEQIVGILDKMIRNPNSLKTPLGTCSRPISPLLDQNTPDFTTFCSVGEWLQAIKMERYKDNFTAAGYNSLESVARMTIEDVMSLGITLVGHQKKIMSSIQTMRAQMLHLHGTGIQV", "summary_of_the_method": "as §1"}, "GRK6(h)": {"target": "T2, GRK6(h) (Homo sapiens, UniProt P43250)", "T2 construct": "purchased Millipore", "summary_of_the_method": "as §1"}, "MELK(h)": {"target": "MELK(h) (Homo sapiens, UniProt Q14680)", "sequence (Q14680 whole entry)": "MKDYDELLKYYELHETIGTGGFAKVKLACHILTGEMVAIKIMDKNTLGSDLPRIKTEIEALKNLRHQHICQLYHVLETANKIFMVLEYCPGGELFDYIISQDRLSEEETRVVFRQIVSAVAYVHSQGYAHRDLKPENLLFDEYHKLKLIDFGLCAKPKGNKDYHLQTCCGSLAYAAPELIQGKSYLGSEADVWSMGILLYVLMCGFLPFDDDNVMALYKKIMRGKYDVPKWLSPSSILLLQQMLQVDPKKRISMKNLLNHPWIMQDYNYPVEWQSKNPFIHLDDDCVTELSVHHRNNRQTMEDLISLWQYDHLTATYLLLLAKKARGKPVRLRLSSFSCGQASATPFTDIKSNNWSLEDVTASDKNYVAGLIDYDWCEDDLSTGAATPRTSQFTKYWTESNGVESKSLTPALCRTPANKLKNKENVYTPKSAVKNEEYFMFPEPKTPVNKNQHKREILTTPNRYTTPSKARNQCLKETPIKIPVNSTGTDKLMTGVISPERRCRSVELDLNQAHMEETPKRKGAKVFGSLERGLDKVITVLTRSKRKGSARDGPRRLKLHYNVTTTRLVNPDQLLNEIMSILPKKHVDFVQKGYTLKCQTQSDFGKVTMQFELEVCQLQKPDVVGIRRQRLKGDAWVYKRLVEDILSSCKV", "summary_of_the_method": "as §1"}, "Met(M1268T)(h)": {"target": "Met(M1268T)(h) (Homo sapiens, UniProt P08581, M1250T)", "summary_of_the_method": "as §1"}, "PDK1(h)": {"target": "T3, PDK1(h) (Homo sapiens, UniProt O15530)", "T3 sequence (O15530 1-556)": "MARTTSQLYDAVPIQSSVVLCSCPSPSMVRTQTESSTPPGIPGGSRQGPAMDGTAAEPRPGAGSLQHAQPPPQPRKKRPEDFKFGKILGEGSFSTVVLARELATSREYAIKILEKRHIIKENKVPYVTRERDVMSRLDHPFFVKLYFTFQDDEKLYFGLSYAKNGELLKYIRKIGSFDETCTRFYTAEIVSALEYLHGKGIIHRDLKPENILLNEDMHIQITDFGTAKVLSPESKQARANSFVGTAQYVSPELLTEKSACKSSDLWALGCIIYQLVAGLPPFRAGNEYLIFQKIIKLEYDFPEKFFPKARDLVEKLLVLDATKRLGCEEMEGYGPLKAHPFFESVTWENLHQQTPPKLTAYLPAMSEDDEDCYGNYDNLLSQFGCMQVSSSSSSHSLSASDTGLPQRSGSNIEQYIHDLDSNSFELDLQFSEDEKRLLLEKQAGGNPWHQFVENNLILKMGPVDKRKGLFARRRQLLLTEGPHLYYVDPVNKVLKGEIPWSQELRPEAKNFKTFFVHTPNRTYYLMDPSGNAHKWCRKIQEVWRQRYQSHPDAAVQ", "summary_of_the_method": "as §1"}, "PKCθ(h)": {"target": "T4, PKCθ(h) (Homo sapiens, UniProt Q04759)", "T4 construct": "purchased Millipore (IC50 Profiler Express service)", "T4 sequence (Q04759 whole entry)": "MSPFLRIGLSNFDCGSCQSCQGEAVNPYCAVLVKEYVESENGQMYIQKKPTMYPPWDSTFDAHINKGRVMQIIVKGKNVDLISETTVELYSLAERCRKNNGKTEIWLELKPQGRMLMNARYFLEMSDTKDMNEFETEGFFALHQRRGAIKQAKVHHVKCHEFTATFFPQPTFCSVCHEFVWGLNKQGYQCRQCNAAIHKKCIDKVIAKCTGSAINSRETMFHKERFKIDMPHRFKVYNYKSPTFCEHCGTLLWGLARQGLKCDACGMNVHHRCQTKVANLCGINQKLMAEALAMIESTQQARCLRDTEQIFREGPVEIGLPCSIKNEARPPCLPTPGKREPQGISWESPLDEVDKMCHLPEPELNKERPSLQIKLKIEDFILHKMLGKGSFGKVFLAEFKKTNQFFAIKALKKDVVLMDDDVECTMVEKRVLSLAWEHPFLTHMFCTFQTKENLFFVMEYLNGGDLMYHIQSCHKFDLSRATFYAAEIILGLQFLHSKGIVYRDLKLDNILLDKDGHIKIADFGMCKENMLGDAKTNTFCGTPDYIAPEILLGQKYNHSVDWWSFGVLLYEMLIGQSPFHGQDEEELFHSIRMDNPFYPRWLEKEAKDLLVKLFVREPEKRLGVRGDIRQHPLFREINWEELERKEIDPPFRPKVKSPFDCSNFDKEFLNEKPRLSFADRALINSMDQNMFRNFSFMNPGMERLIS", "summary_of_the_method": "as §1"}, "Ret(h)": {"target": "T5, Ret(h) (Homo sapiens, UniProt P07949)", "T5 construct": "purchased Millipore (IC50 Profiler Express service)", "summary_of_the_method": "as §1"}}}
{"sequence": "HRRIKAWLKKIKALARQLGVAA (Mammalian) [MMI-0500]", "values": [{"measurement": "BTK(h) % activity", "setting": "BTK(h)", "result": 18, "unit": "%"}, {"measurement": "Bmx(h) % activity", "setting": "Bmx(h)", "result": 45, "unit": "%"}, {"measurement": "CDK9/cyclin T1(h) % activity", "setting": "CDK9/cyclin T1(h)", "result": 6, "unit": "%"}, {"measurement": "CLK3(h) % activity", "setting": "CLK3(h)", "result": 76, "unit": "%"}, {"measurement": "CaMKIIδ(h) % activity", "setting": "CaMKIIδ(h)", "result": 1, "unit": "%"}, {"measurement": "EphA7(h) % activity", "setting": "EphA7(h)", "result": 189, "unit": "%"}, {"measurement": "GRK6(h) % activity", "setting": "GRK6(h)", "result": 174, "unit": "%"}, {"measurement": "MELK(h) % activity", "setting": "MELK(h)", "result": 0, "unit": "%"}, {"measurement": "Met(M1268T)(h) % activity", "setting": "Met(M1268T)(h)", "result": 239, "unit": "%"}, {"measurement": "PDK1(h) % activity", "setting": "PDK1(h)", "result": 178, "unit": "%"}, {"measurement": "PKCθ(h) % activity", "setting": "PKCθ(h)", "result": 62, "unit": "%"}, {"measurement": "Ret(h) % activity", "setting": "Ret(h)", "result": 174, "unit": "%"}]}
{"sequence": "KAFAKLAARLYRKALARQLGVAA [MMI-0400]", "values": [{"measurement": "BTK(h) % activity", "setting": "BTK(h)", "result": 94, "unit": "%"}, {"measurement": "Bmx(h) % activity", "setting": "Bmx(h)", "result": 26, "unit": "%"}, {"measurement": "CDK9/cyclin T1(h) % activity", "setting": "CDK9/cyclin T1(h)", "result": 235, "unit": "%"}, {"measurement": "CLK3(h) % activity", "setting": "CLK3(h)", "result": 84, "unit": "%"}, {"measurement": "CaMKIIδ(h) % activity", "setting": "CaMKIIδ(h)", "result": 2, "unit": "%"}, {"measurement": "EphA7(h) % activity", "setting": "EphA7(h)", "result": 222, "unit": "%"}, {"measurement": "GRK6(h) % activity", "setting": "GRK6(h)", "result": 141, "unit": "%"}, {"measurement": "MELK(h) % activity", "setting": "MELK(h)", "result": 17, "unit": "%"}, {"measurement": "Met(M1268T)(h) % activity", "setting": "Met(M1268T)(h)", "result": 265, "unit": "%"}, {"measurement": "PDK1(h) % activity", "setting": "PDK1(h)", "result": 159, "unit": "%"}, {"measurement": "PKCθ(h) % activity", "setting": "PKCθ(h)", "result": 76, "unit": "%"}, {"measurement": "Ret(h) % activity", "setting": "Ret(h)", "result": 145, "unit": "%"}]}
{"sequence": "FAKLAARLYRKALARQLGVAA [MMI-0300]", "values": [{"measurement": "CDK9/cyclin T1(h) % activity", "setting": "CDK9/cyclin T1(h)", "result": 91, "unit": "%"}, {"measurement": "CLK3(h) % activity", "setting": "CLK3(h)", "result": 61, "unit": "%"}, {"measurement": "CaMKIIδ(h) % activity", "setting": "CaMKIIδ(h)", "result": 1, "unit": "%"}, {"measurement": "EphA7(h) % activity", "setting": "EphA7(h)", "result": 159, "unit": "%"}, {"measurement": "GRK6(h) % activity", "setting": "GRK6(h)", "result": 147, "unit": "%"}, {"measurement": "MELK(h) % activity", "setting": "MELK(h)", "result": 16, "unit": "%"}, {"measurement": "Met(M1268T)(h) % activity", "setting": "Met(M1268T)(h)", "result": 255, "unit": "%"}, {"measurement": "PDK1(h) % activity", "setting": "PDK1(h)", "result": 135, "unit": "%"}, {"measurement": "PKCθ(h) % activity", "setting": "PKCθ(h)", "result": 88, "unit": "%"}, {"measurement": "Ret(h) % activity", "setting": "Ret(h)", "result": 140, "unit": "%"}]}
{"sequence": "YARAAARQARAKALNRQLGVA (Mammalian) [MMI-0200]", "values": [{"measurement": "BTK(h) % activity", "setting": "BTK(h)", "result": 100, "unit": "%"}, {"measurement": "Bmx(h) % activity", "setting": "Bmx(h)", "result": 76, "unit": "%"}, {"measurement": "CLK3(h) % activity", "setting": "CLK3(h)", "result": 76, "unit": "%"}, {"measurement": "CaMKIIδ(h) % activity", "setting": "CaMKIIδ(h)", "result": 2, "unit": "%"}, {"measurement": "EphA7(h) % activity", "setting": "EphA7(h)", "result": 220, "unit": "%"}, {"measurement": "GRK6(h) % activity", "setting": "GRK6(h)", "result": 132, "unit": "%"}, {"measurement": "MELK(h) % activity", "setting": "MELK(h)", "result": 59, "unit": "%"}, {"measurement": "Met(M1268T)(h) % activity", "setting": "Met(M1268T)(h)", "result": 143, "unit": "%"}, {"measurement": "PDK1(h) % activity", "setting": "PDK1(h)", "result": 143, "unit": "%"}, {"measurement": "PKCθ(h) % activity", "setting": "PKCθ(h)", "result": 101, "unit": "%"}, {"measurement": "Ret(h) % activity", "setting": "Ret(h)", "result": 96, "unit": "%"}]}
